Data set [1] concerns the target LiCre (asLOV2-Cre chimera) (synthetic chimera (Avena sativa LOV2?)) (UniProt P06956). The data set can be described thus: SPR. The conditions noted are these: SPR (Biacore T200, SA chip): 20 mM Tris pH 7.4, 50 mM KCl, 150 mM NaCl, 10 mM MgCl2, 1 mM DTT, 0.05% P20; 25 C; 0.3125-10 nM protein; no blue light.
The target in data set [2] is Cre recombinase (UniProt P06956 1-343). Briefly: SPR; KD1, first unit; global kinetic fit of half and full site data; 10 mM Mg2+; no blue light; SPR (Biacore T200, SA chip): 20 mM Tris pH 7.4, 50 mM KCl, 150 mM NaCl, 10 mM MgCl2, 1 mM DTT, 0.05% P20; 25 C; 0.3125-10 nM protein; no blue light. To be noted: protein: recombinant; tags: N-terminal 6xHis; chain copies: 2; label: 5'-biotin on 1Y70; blunt. In general terms: SPR reads the build-up and loss of mass on a sensor chip optically.

“CGGAATTCACAACTTCGTATAATGTATGCTATACGAAGTTATGGATCCGC (double strand) [full loxP (1Y68/1Y69)]” displayed a Kd in data set [1] of 0.0061 nM.
Still for that read-out and setting: in the case of “CGGAATTCAGATCTATAACTTCGTATAATGTGTCTAGAGGATCCGC (double strand) [half loxP (1Y70/1Y71)]” it was 0.49 nM.

B1: half loxP (1Y70/1Y71) (dsDNA)
DNA 1: CGGAATTCAGATCTATAACTTCGTATAATGTGTCTAGAGGATCCGC
DNA 2: GCGGATCCTCTAGACACATTATACGAAGTTATAGATCTGAATTCCG
As to B1, in data set [2], the Kd is 1.15 nM.

The term Kd denotes the constant that tells how readily two partners part at equilibrium.

The values are drawn from article PMC13225215, “Kinetic properties of optogenetic site-specific DNA recombination by LiCre-loxP”.
